This is an account of results in patent US20240124590A1 (ULTRAHUMAN EIGHT, published 2024).

Experiment [1] addresses T1, human PD1 expressed on cells (human, UniProt Q15116 25-288). In words: cell-based or functional assay.
Experiment [2] deals with T1, human PD1 expressed on cells. In words: flow cytometry, PD1 CHO-K1 cells. The procedure:
(§1) Purified IgGs were tested in FACs for binding to human and cyno PD1 expressed on CHO-K1 stable cell lines and CHO-K1 wild-type cells. […] Binding of IgGs was detected with a mouse anti-human IgG conjugated to FITC. Results were analyzed by examining the Mean Fluorescence Intensity (MFI) of 10000 cells per sample in the BL-1 channel detector of a flow cytometer (Attune™ NxT Acoustic Focusing Cytometer, Invitrogen/ThermoFisher Scientific).
(§2) Antibodies to PD1 were analysed for concentration-dependent binding at the cell surface via flow cytometry. Initial analyses were performed on CHO cells stably-transfected with human or cyno PD1.
(In flow cytometry, cells or beads pass a laser one at a time.)

For experiment [3], the target named is T2, cyno PD1 expressed on CHO-K1 cells (cynomolgus monkey, UniProt Q15116 25-288 (human entry)).
T2 construct: also called cyno PD1+ CHO cells
T2 chain: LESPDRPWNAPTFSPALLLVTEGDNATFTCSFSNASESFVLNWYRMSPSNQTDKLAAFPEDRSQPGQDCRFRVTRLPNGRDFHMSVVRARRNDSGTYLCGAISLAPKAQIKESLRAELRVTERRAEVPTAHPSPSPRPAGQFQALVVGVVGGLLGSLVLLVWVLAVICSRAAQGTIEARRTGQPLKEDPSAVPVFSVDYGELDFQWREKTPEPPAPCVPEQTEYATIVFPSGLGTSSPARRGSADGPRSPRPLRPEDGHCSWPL
As to the kind of experiment: flow cytometry, PD1 CHO-K1 cells. The procedure:
as §1, §2

Experiment [4] addresses T3, human PD1 human Fc tagged recombinant protein (human, UniProt Q15116 25-170, limits assumed).
T3 construct: also called huPD1-Fc; huPD-1-Fc; not shown: human Fc tag
In words: direct ELISA, IgG1null on coated PD1-Fc. The procedure:
(§3) Binding and cross-reactivity of the lead panel to the recombinant proteins was initially assessed by binding ELISA. The human PD1 human Fc tagged recombinant protein and the cynomolgus monkey PD1 human Fc tagged recombinant protein were coated to the surface of MaxiSorp™ flat-bottom 96 well plate at 1 μg/ml. […] The Fabs were detected using mouse anti-c-myc antibody followed by donkey anti-mouse IgG conjugated to horseradish peroxidase. The IgGs were detected using the mouse anti-human IgG conjugated to horseradish peroxidase. Binding signals were visualized with 3,3′,5,5′-Tetrannethylbenzidine Substrate Solution (TMB) and the absorbance measured at 450 nm.
(§4) The purified IgGs described above were then tested for binding to human and cyno PD1-Fc in direct titration ELISA format. […] As the ELISA EC50 values for directly binding IgGs are strongly influenced by avidity, rather than true 1:1 binding affinity, we then proceeded to perform higher-sensitivity, solution-phase epitope competition and Biacore binding affinity determinations, as outlined below.
In general terms: An ELISA detects its analyte on a solid surface through an enzyme-linked reagent.

In experiment [5] the target is T4, cynomolgus monkey PD1 human Fc tagged recombinant protein (cynomolgus monkey, UniProt Q15116 25-170 (human entry), limits assumed).
T4 construct: also called cyPD1-Fc; cyPD-1-Fc; not shown: human Fc tag
T4 chain: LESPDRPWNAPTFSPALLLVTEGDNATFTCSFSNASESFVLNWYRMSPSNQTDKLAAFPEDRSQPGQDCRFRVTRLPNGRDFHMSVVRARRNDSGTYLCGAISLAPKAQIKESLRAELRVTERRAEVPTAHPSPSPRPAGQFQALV
As to the kind of experiment: direct ELISA, IgG1null on coated PD1-Fc. The procedure:
as §3, §4

In experiment [6] the target is T5, human ULBP2 (UL16 binding protein 2) on transfected HEK293 cells (human, UniProt Q9BZM5 26-217).
T5 sequence: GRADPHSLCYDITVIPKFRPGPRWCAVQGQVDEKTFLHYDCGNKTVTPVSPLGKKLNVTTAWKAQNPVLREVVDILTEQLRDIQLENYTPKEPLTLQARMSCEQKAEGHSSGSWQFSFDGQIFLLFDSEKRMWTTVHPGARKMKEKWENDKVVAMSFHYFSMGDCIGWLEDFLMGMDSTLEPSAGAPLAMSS
As to the kind of experiment: cell microarray re-array, transfected HEK293.

The target of experiment [7] is T3, human PD1 human Fc tagged recombinant …. As to the kind of experiment: direct ELISA, IgG1null on coated PD1-Fc. The procedure: as §3, §4
This is another data set of the same source.

In experiment [8] the target is T4, cynomolgus monkey PD1 human Fc tagged …. In words: direct ELISA, IgG1null on coated PD1-Fc. The procedure:
as §3, §4

Substitutions are numbered along the chain they refer to. Like-named read-outs stand apart in the source and are kept apart here.

For orientation: EC50 means the concentration that produces a half-maximal response.

T1 sequence (Q15116 25-288 limits assumed): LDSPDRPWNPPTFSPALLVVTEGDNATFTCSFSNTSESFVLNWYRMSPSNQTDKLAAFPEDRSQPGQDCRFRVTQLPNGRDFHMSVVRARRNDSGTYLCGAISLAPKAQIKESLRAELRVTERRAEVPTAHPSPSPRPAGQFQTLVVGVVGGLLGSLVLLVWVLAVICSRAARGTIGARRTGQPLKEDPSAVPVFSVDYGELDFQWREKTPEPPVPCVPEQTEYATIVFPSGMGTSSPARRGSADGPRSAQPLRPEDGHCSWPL
T3 sequence (Q15116 25-170 limits assumed): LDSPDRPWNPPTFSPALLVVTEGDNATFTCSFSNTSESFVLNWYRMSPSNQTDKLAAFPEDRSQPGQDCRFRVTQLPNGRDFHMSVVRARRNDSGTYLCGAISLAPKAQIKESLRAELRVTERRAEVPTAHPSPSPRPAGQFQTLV

B1: IgG1-08 (antibody, V domains shown)
VH: EVQLVESGGGLVQPGGSLRLSCAASGFTFSSYLMSWVRQAPGKGLEWVATISGGGSEKYYVDSVKGRFTISRDNAKNSLYLQMNSLRAEDTAVYYCARQLYGFDYWGQGTLVTVSS
VL: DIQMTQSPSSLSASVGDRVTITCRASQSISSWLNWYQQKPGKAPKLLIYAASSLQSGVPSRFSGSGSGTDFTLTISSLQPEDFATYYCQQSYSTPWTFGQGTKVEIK
notes: Designer; human IgG1null + Ckappa; also called Antibody IgG1-08; MAB08
Take B1: in experiment [1], the “EC50 (ng/ml), IgG1null blockade of human PD1/PD-L1” value (“EC50 (ng/ml), IgG1null blockade” below) came to 127 ng/mL. For the same molecule, the EC50 in experiment [2] is 1.55 nM; in experiment [3] it was 2.03 nM; in experiment [4] it was 0.134 nM; in experiment [5] it was 0.0771 nM. Besides, the binding result in experiment [6] is listed as “no binding (tested: 5 µg/ml)”.

B2: IgG1-05 (antibody, V domains shown)
VH: B1 VH with L100V, G102Y
VL: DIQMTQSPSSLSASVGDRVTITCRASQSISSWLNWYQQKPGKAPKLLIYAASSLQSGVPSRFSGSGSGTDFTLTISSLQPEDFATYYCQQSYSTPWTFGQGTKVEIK
notes: Designer; human IgG1null + Ckappa; also called Antibody IgG1-05
As for B2, the “EC50 (ng/ml), IgG1null blockade” value in experiment [1] turned out to be 156 ng/mL. In addition, the EC50 in experiment [2] came to 1.66 nM; in experiment [3], 2.52 nM; in experiment [4] it was 0.121 nM; in experiment [5], 0.135 nM. Besides, the binding result in experiment [6] is recorded as “no binding (tested: 5 µg/ml)”.

B3: IgG1-06D02 (antibody, V domains shown)
VH: B1 VH with K58T
VL: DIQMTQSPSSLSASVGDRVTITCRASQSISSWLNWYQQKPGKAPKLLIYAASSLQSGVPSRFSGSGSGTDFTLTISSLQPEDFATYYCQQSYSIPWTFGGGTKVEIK
notes: Library-derived; human IgG1null + Ckappa; also called Clone 06D02
In the case of B3, in experiment [1], the “EC50 (ng/ml), IgG1null blockade” value is 224 ng/mL. In addition, the EC50 in experiment [2] was 1.78 nM; in experiment [3], 1.56 nM; in experiment [7] it was 0.065 nM; in experiment [8], 0.104 nM. Besides, the binding result in experiment [6] is on record as “no binding (tested: 5 µg/ml)”.
